From paper PMC4798592

Tests used:
Conditions in all cases: EMSA: 20 mM phosphate pH 8.0, 100 mM NaCl, 5% glycerol, with or without TX-100, 0.1 nM 32P-DNA, 20 min on ice, 6% native PAGE
[1] = test system: rSarA (Staphylococcus aureus); experiment: EMSA
[2] = test system: C9W (rSarA C9W) (Staphylococcus aureus); experiment: EMSA
[3] = test system: rSarA (Staphylococcus aureus); experiment: EMSA; remark: listed apart in the source
[4] = test system: C9W (rSarA C9W) (Staphylococcus aureus); experiment: EMSA; remark: listed apart in the source
[5] = test system: rSarA (Staphylococcus aureus); experiment: EMSA; remark: listed apart in the source
[6] = test system: C9W (rSarA C9W) (Staphylococcus aureus); experiment: EMSA; remark: listed apart in the source
[7] = test system: rSarA (Staphylococcus aureus); experiment: EMSA; remark: listed apart in the source
[8] = test system: C9W (rSarA C9W) (Staphylococcus aureus); experiment: EMSA; remark: listed apart in the source
[9] = target: T1, rSarA (Staphylococcus aureus) (UniProt A6QES8); experiment: DNase I footprinting
T1 sequence: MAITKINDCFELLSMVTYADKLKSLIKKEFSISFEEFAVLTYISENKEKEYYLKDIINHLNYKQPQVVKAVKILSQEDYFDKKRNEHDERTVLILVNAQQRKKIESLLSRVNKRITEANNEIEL

Row | Substance | Kd [1] [nM] | Kd [2] [nM] | Kd [3] [nM] | Kd [4] [nM] | Kd [5] [nM] | Kd [6] [nM] | Kd [7] [nM] | Kd [8] [nM] | binding [9]
1 | hla promoter DNA | 35 | 398 | 364 | 97 | 20 | 58 | 50 | 60 | –
2 | CTATTAGATATTTCTATGTAATGGCAAAATTTATTCCCGACGAAATTCCAAACATAATTAATACCCTTTTTCTCTATTTCTATTTATTAATTTACACTAGTTAATATATAGTTAATTTTTATTTAATAGTTAATTAATTGATTTAATTCTAAGATATTTGTATTTTTATATTGTAATCGATTACATTTTTAAATCAAACAAATCATTAGTTTTAAAGAAATTAATCAATAAAATTAGCTATGT (double strand) [hla promoter DNA, bottom strand labelled (footprinting)] | – | – | – | – | – | – | – | – | binds
